Molecular target: T1, EPO receptor (expressed on TF-1 cells) (UniProt P19235)
T1 sequence (looked up): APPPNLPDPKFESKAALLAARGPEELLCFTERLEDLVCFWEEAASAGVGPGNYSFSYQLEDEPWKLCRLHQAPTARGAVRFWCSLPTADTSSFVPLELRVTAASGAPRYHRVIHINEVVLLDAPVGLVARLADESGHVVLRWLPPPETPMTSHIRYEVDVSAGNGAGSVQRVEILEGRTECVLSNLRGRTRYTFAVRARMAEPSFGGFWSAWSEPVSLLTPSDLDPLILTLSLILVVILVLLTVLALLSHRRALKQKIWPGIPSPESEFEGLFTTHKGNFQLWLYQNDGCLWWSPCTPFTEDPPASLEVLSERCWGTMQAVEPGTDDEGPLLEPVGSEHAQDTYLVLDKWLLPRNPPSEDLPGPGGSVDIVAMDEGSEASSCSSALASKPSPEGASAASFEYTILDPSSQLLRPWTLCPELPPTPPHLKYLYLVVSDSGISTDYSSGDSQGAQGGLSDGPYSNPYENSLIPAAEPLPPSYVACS
Experiment: cell-based or functional assay

- ED50, TF-1 cell proliferation (3H-thymidine incorporation); S.D. 0.96, N 10: 2.4 ng/mL
Substance: EPO (Aranesp®) (ligand)

Source: patent US20050202538A1 (Merck KGaA, published 2005)
